The results in this text go back to patent publication EP4663659A1 (Merck Patent GmbH, dated 2025).

This test addresses T1, mouse CD40 (mouse, UniProt P27512 20-193, limits assumed).
T1 construct: also called mCD40
T1 sequence (looked up): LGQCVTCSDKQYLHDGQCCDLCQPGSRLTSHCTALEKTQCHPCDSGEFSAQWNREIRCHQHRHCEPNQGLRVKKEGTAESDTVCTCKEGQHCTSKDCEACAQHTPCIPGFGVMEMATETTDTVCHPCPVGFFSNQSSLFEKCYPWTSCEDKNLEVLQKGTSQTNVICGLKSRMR
Nature of the test: not described; the molecule was used as isotype control in mice.

B1: Fusion protein 1 (FP1), anti-MUC-1 × anti-CD40 bispecific binding protein (bispecific antibody, human IgG1, lambda, L234A L235A)
heavy: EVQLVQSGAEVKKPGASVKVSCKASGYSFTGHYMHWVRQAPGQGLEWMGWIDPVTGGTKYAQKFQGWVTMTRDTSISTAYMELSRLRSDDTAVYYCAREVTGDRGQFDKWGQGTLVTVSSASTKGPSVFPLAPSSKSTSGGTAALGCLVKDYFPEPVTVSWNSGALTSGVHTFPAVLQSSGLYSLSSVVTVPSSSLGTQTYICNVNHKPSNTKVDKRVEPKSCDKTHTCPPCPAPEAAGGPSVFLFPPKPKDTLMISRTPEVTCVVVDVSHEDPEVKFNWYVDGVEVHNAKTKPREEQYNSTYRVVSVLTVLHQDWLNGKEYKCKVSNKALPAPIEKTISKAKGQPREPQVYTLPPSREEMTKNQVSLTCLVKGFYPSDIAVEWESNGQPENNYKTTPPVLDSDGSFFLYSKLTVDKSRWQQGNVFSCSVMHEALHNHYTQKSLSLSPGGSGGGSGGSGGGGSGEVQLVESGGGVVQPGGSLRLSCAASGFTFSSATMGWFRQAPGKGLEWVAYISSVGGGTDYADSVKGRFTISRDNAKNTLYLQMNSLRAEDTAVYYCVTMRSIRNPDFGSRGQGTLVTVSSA
light: SYVLTQPPSVSVAPGKTARITCGGNNIGSKSVHWYQQKPGQAPVLVIYYGSNRPSGIPERFSGSNSGNTATLTISRVEAGDEADYYCQVWDSSSDWVFGGGTKLTVLGQPKAAPSVTLFPPSSEELQANKATLVCLISDFYPGAVTVAWKADSSPVKAGVETTTPSKQSNNKYAASSYLSLTPEQWKSHKSYSCQVTHEGSTVEKTVAPTECS
notes: Fully human anti-MUC-1 IgG1 with one anti-human CD40 VHH fused by a 15 aa GS linker to the C-terminus of each heavy chain; also called Anti MUC-1 × CD40; anti MUC-1 × hCD40 A02
For B1, the binding result is on record as “no binding”.
